Data reported in publication PMC13562413, “FoxO transcription factors coordinate the urea cycle and gluconeogenesis by controlling Ass1”.

Target: GST-FoxO1-DBD (Mus musculus, UniProt Q9R1E0 157-268)
Assay: EMSA; 10 mM HEPES pH 7.8, 50 mM KCl, 1 mM EDTA, 5 mM MgCl2, 10% glycerol, 5 mM DTT, 0.4 ug/mL poly(dI-dC), 30 min on ice; 4.6% PAGE in TBE
Details: protein: recombinant; tags: N-terminal GST (pGEX-4T1); label: 32P (alpha-32P dCTP, Klenow fill-in); blunt after fill-in of 5' overhangs

Chain of GST-FoxO1-DBD (Q9R1E0 157-268): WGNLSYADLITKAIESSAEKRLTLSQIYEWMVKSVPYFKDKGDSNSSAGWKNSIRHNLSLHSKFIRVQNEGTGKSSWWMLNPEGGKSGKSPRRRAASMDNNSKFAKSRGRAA

B1: Ass1 FoxO BS1 mut (dsDNA)
DNA 1: GTGTACCCAAGGACACATCTACTTTCTTTCTGATTTTGGATCCTTTGTTGGGTG
DNA 2: CACCCAACAAAGGATCCAAAATCAGAAAGAAAGTAGATGTGTCCTTGGGTACAC
binding result: no binding
